Key:
integrin αvβ3 = conditions: cRGDfK as reference; cited from earlier work
Excerpt: Based on previous studies, multimeric cyclic RGD has higher (20–100 more) αvβ3 binding affinity than its monomeric alternatives. […] Many other works reported higher dissociation constant or lower affinity.

physchem = format: physicochemical; conditions: pH 7.4
Method: In a 5 ml Eppendorf tube, 100 μl of the radiolabelled peptide, 0.99 ml of PBS, pH 7.4, and 1 ml n-octanol were mixed. After intense vortexing for 8 min, the two layers were separated by centrifugation. Then, 500 μl aliquots of aqueous and organic layers were transferred to a new tube, radioactivity was measured in a well-type gamma counter (Delshid Gamma counter, Tehran, Iran), and partition coefficient (log P) values were calculated (n = 3).

in vitro = in vitro ADME; conditions: human, plasma
Method: The protein binding properties of [^68Ga]Ga-DOTA-E(cRGDfK)2 in blood were investigated by protein precipitation. 1ml of the labeled complex and 3ml of human plasma were mixed and incubated for 1 hour at 37°C. Then, an equal volume of 10% trichloroacetic acid (TCA) was added, and samples were centrifuged at 3,000 rpm for 10 min […]. Precipitate was resuspended in 5% TCA and centrifuged at 3,000 rpm for 10 min. Precipitate and the supernatant fractions were analyzed for radioactivity in a gamma counter. Protein binding of [^68Ga]Ga-DOTA-E(cRGDfK)2 was expressed as the fraction of radioactivity bound to the protein, in percentage of the total radioactivity.

A549 tumor = system: A549 tumor; design: species or system BALB/c mice; conditions: mouse, in vivo
Method: 100 μg of [^68Ga]Ga-DOTA-E(cRGDfK)2 formulated in 100 μL saline was injected via the tail vein of 3 groups of 3 BALB/c mice. At 30, 60, and 90 min postinjection, mice were euthanized using a lethal dose of ketamine/xylazine, and blood was collected from the heart using a preheparinised syringe. Tumor and normal organs were excised, washed, weighed, and the radioactivity of each organ was determined using a well-type gamma counter. The organ uptake was measured as percent of the injected dose per gram of organ tissue (%ID/g). A blocking experiment was performed in the presence of a 500-fold excess of unlabeled DOTA-E(cRGDfK)2 30 min before [^68Ga]Ga-DOTA-E(cRGDfK)2 injection.
6–8 weeks female BALB/c mice (with body weights of 20–25 g) were purchased from Royan Insitute (Amol, Iran). Animals were housed in wire cages under controlled conditions of temperature at 25°C, relative humidity around 50%, and 12/12 h light/dark cycles with food, and water was given ad libitum. 2 × 10^6 cell suspensions of human lung adenocarcinoma A549 in 100 μl PBS were injected subcutaneously in the right dorsal flank of each mouse. Palpable tumor diameter was measured using digital calipers twice weekly. When tumor size reached a mean tumor volume of 50–100 mm^3, animals received a tail vein injection of 740 kBq of [^68Ga]Ga-DOTA-E(cRGDfK)2 in 100 μl normal saline. […]

| Molecule | Kd (integrin αvβ3) | logD (physchem) | In vitro protein binding (in vitro; 1 h) | fraction unbound at 1 h (in vitro; In vitro protein binding) | Clearance (A549 tumor) | Uptake of radioactivity in the kidney and intestine (A549 tumor) |
| --- | --- | --- | --- | --- | --- | --- |
| cRGDfK | 1.3 µM |  |  |  |  |  |
| N=C(N)NCCC[C@@H]1NC(=O)[C@H](CCCCNC(=O)CC[C@H](NC(=O)CN2CCN(CC(=O)O)CCN(CC(=O)O)CCN(CC(=O)O)CC2)C(=O)NCCCC[C@@H]2NC(=O)[C@@H](Cc3ccccc3)NC(=O)[C@H](CC(=O)O)NC(=O)CNC(=O)[C@H](CCCNC(=N)N)NC2=O)NC(=O)[C@@H](Cc2ccccc2)NC(=O)[C@H](CC(=O)O)NC(=O)CNC1=O [[^68Ga]Ga-DOTA-E(cRGDfK)2, metal not drawn] |  | -3.97 ± 0.13 | 2.88% | > 0.95 | fast and via the renal system | moderate uptake |

— PMC7153000, “Radiosynthesis, Biological Evaluation, and Preclinical Study of a ^68Ga-Labeled Cyclic RGD Peptide as an Early Diagnostic Agent for Overexpressed αvβ3 Integrin Receptors in Non-Small-Cell Lung Cancer” (Contrast Media & Molecular Imaging, 2020)
